This is an account of results in PMC3944691, “Crystallization and preliminary X-ray diffraction analysis of the amidase domain of allophanate hydrolase from Pseudomonas sp. strain ADP” (Acta Crystallographica. Section F, Structural Biology …, 2014).

By stoichiometry N is commonly meant a count of units in the complex or per binding partner.

Data set [1] deals with Allophanate hydrolase (AtzF) from Pseudomonas sp. strain ADP, His-tagged full-length (Pseudomonas sp. strain ADP). Kind of data set: SEC; purified full-length AtzF on Superdex 200 prep-grade, 50 mM HEPES, 100 mM NaCl pH 7.5; oligomeric state from apparent size (~360 kDa). In general terms: In gel filtration, larger molecules generally elute earlier.
Data set [2] deals with the molecule itself. Kind of data set: SEC; purified AtzF467 on Superdex 200 prep-grade, 50 mM Tris, 100 mM NaCl pH 7.5; oligomeric state from apparent size (~110 kDa); data not shown.

Regarding “Allophanate hydrolase (AtzF) from Pseudomonas sp. strain ADP, His-tagged full-length (enzyme)”, the stoichiometry N in data set [1] was found to be 6.

B1: C-terminally truncated AtzF (AtzF467), first 467 amino acids of AtzF, N-terminally histidine-tagged (domain or fragment, Pseudomonas sp. strain ADP)
chain: MNDRAPHPERSGRVTPDHLTDLASYQAAYAAGTDAADVISDLYARIKEDGENPIWISLLPLESALAMLADAQQRKDKGEALPLFGIPFGVKDNIDVAGLPTTAGCTGFARTPRQHAFVVQRLVDAGAIPIGKTNLDQFATGLNGTRTPFGIPRCVFNENYVSGGSSSGSAVAVANGTVPFSLGTDTAGSGRIPAAFNNLVGLKPTKGLFSGSGLVPAARSLDCISVLAHTVDDALAVARVAAGYDADDAFSRKAGAAALTEKSWPRRFNFGVPAAEHRQFFGDAEAEALFNKAVRKLEEMGGTCISFDYTPFRQAAELLYAGPWVAERLAAIESLADEHPEVLHPVVRDIILSAKRMSAVDTFNGIYRLADLVRAAESTWEKIDVMLLPTAPTIYTVEDMLADPVRLNSNLGFYTNFVNLMDLSAIAVPAGFRTNGLPFGVTFIGRAFEDGAIASLGKAFVEHDLAK
notes: Allophanate hydrolase AtzF, Pseudomonas sp. strain ADP, first 467 amino acids (ends at Lys467), amidase domain; also called amidase domain of allophanate hydrolase; source: E. coli BL21 (λDE3), purified (Ni-NTA, Superdex 200 size exclusion); not shown: His6, N-terminal, kept
Take B1: the “stoichiometry N” value in data set [2] came to 2.
